Source: the supplement of paper PMC6757056
± gives the standard deviation of the averaged measurements.

B1: library; a variant is named by its letters at N, in order (parent)
chain: GCUGUCACCGGUGCUUGGUACGUUAUAUUCAGCCGGUCUGAUGAGUCUNNNNNNAGACGAAACAGC

How the values were obtained:
(6R,S)-folinic acid [1] = variants of: B1; assay: FACS-Seq fitted mean relative fluorescence mCherry/BFP without ligand (log10 relative fluorescence); HEK293T overexpressing SLC46A1; higher = higher reporter protein expression; conditions: without (6R,S)-folinic acid; ligand present: no
In short: (§1)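 Fluorescence figures are normalized fitted normal means of sequenced bin counts. Enriched, lentivirally transduced HEK293T libraries with a ribozyme-switch mCherry reporter and EF1α-BFP were held 48 h with or without ligand, then sorted into 6 mCherry/BFP bins. PCR-amplified, barcoded genomic DNA from each bin was sequenced on MiSeq. Means of log10(mCherry/BFP) were scaled to five spiked-in control ribozymes.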

(6R,S)-folinic acid [2] = variants of: B1; assay: normalized RNA/DNA level without ligand (relative to sTRSVctl = 100) (log10 (% of sTRSVctl)); HEK293T overexpressing SLC46A1; higher = less ribozyme self-cleavage, higher mRNA level; conditions: without (6R,S)-folinic acid; ligand present: no
Method: (§2)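 Hammerhead (sTRSV) ribozyme switch libraries with a ligand aptamer grafted on stem I and a randomized N4-6 loop II, cloned into the 3' UTR of mCherry and transiently transfected into HEK293T cells; RNA-Seq 72 h post transfection with ligand added 1 h before transfection; RNA read count / plasmid DNA read count normalized to the non-cleaving sTRSVctl (x100), log10; sequences with >100 DNA reads. FACS-Seq: lentiviral library sorted into 6 bins after 48 h ligand, log-normal fit mean of mCherry/BFP scaled to controls. Printed sequences are partial switch sequences.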

(6R,S)-folinic acid [3] = variants of: B1; assay: FACS-Seq fitted mean relative fluorescence mCherry/BFP with ligand (log10 relative fluorescence); HEK293T overexpressing SLC46A1; ligand concentration (+) FACS-Seq: 6 mM; higher = higher reporter protein expression; conditions: with (6R,S)-folinic acid; ligand present: yes
In short: as §1

(6R,S)-folinic acid [4] = variants of: B1; assay: normalized RNA/DNA level with ligand (relative to sTRSVctl = 100) (log10 (% of sTRSVctl)); HEK293T overexpressing SLC46A1; ligand concentration (+) RNA-Seq: 6 mM; higher = less ribozyme self-cleavage, higher mRNA level; conditions: with (6R,S)-folinic acid; ligand present: yes
Method: as §2

GCUGUCACCGGUGCUUGGUACGUUAUAUUCAGCCGGUCUGAUGAGUCUGACAACAGACGAAACAGC
FACS-Seq fitted mean (log10) ((6R,S)-folinic acid [1]): 0.378 ± 0.076 | normalized RNA/DNA level without ligand (log10) ((6R,S)-folinic acid [2]): 1.987 ± 0.0049 | FACS-Seq fitted mean (log10) ((6R,S)-folinic acid [3]): 0.472 ± 0.21 | normalized RNA/DNA level with ligand (log10) ((6R,S)-folinic acid [4]): 2.004 ± 0.013

GCUGUCACCGGUGCUUGGUACGUUAUAUUCAGCCGGUCUGAUGAGUCUAACAACAGACGAAACAGC
FACS-Seq fitted mean (log10) ((6R,S)-folinic acid [1]): -0.0136 ± 0.067 | normalized RNA/DNA level without ligand (log10) ((6R,S)-folinic acid [2]): 2.028 ± 0.006 | FACS-Seq fitted mean (log10) ((6R,S)-folinic acid [3]): -0.491 ± 0.14 | normalized RNA/DNA level with ligand (log10) ((6R,S)-folinic acid [4]): 2.02 ± 0.024

GCUGUCACCGGUGCUUGGUACGUUAUAUUCAGCCGGUCUGAUGAGUCUUACAAGAGACGAAACAGC
FACS-Seq fitted mean (log10) ((6R,S)-folinic acid [1]): 0.55 ± 0.1 | normalized RNA/DNA level without ligand (log10) ((6R,S)-folinic acid [2]): 1.74 ± 0.032 | FACS-Seq fitted mean (log10) ((6R,S)-folinic acid [3]): 0.813 ± 0.031 | normalized RNA/DNA level with ligand (log10) ((6R,S)-folinic acid [4]): 1.94 ± 0.032

GCUGUCACCGGUGCUUGGUACGUUAUAUUCAGCCGGUCUGAUGAGUCUAACAAGAGACGAAACAGC
FACS-Seq fitted mean (log10) ((6R,S)-folinic acid [1]): 0.152 ± 0.031 | normalized RNA/DNA level without ligand (log10) ((6R,S)-folinic acid [2]): 1.923 ± 0.0084 | FACS-Seq fitted mean (log10) ((6R,S)-folinic acid [3]): 0.113 ± 0.2 | normalized RNA/DNA level with ligand (log10) ((6R,S)-folinic acid [4]): 2.02 ± 0.036

GCUGUCACCGGUGCUUGGUACGUUAUAUUCAGCCGGUCUGAUGAGUCUUACAAUAGACGAAACAGC
FACS-Seq fitted mean (log10) ((6R,S)-folinic acid [1]): 0.467 ± 0.071 | normalized RNA/DNA level without ligand (log10) ((6R,S)-folinic acid [2]): 1.95 ± 0.02 | FACS-Seq fitted mean (log10) ((6R,S)-folinic acid [3]): 0.559 ± 0.071 | normalized RNA/DNA level with ligand (log10) ((6R,S)-folinic acid [4]): 2 ± 0.026

GCUGUCACCGGUGCUUGGUACGUUAUAUUCAGCCGGUCUGAUGAGUCUAACAAUAGACGAAACAGC
FACS-Seq fitted mean (log10) ((6R,S)-folinic acid [1]): 0.338 ± 0.22 | normalized RNA/DNA level without ligand (log10) ((6R,S)-folinic acid [2]): 1.935 ± 0.0082 | FACS-Seq fitted mean (log10) ((6R,S)-folinic acid [3]): 0.122 ± 0.3 | normalized RNA/DNA level with ligand (log10) ((6R,S)-folinic acid [4]): 1.97 ± 0.039

GCUGUCACCGGUGCUUGGUACGUUAUAUUCAGCCGGUCUGAUGAGUCUCACACAAGACGAAACAGC
FACS-Seq fitted mean (log10) ((6R,S)-folinic acid [1]): 0.66 ± 0.12 | normalized RNA/DNA level without ligand (log10) ((6R,S)-folinic acid [2]): 1.97 ± 0.026 | FACS-Seq fitted mean (log10) ((6R,S)-folinic acid [3]): 0.319 ± 0.036 | normalized RNA/DNA level with ligand (log10) ((6R,S)-folinic acid [4]): 1.98 ± 0.031

GCUGUCACCGGUGCUUGGUACGUUAUAUUCAGCCGGUCUGAUGAGUCUGACACAAGACGAAACAGC
FACS-Seq fitted mean (log10) ((6R,S)-folinic acid [1]): 0.265 ± 0.028 | normalized RNA/DNA level without ligand (log10) ((6R,S)-folinic acid [2]): 1.99 ± 0.02 | FACS-Seq fitted mean (log10) ((6R,S)-folinic acid [3]): 0.656 ± 0.046 | normalized RNA/DNA level with ligand (log10) ((6R,S)-folinic acid [4]): 2 ± 0.037

GCUGUCACCGGUGCUUGGUACGUUAUAUUCAGCCGGUCUGAUGAGUCUUACACAAGACGAAACAGC
FACS-Seq fitted mean (log10) ((6R,S)-folinic acid [1]): 0.187 ± 0.0057 | normalized RNA/DNA level without ligand (log10) ((6R,S)-folinic acid [2]): 1.974 ± 0.012 | FACS-Seq fitted mean (log10) ((6R,S)-folinic acid [3]): -0.044 ± 0.049 | normalized RNA/DNA level with ligand (log10) ((6R,S)-folinic acid [4]): 1.9892 ± 0.0017

GCUGUCACCGGUGCUUGGUACGUUAUAUUCAGCCGGUCUGAUGAGUCUUACACGAGACGAAACAGC
FACS-Seq fitted mean (log10) ((6R,S)-folinic acid [1]): 0.231 ± 0.14 | normalized RNA/DNA level without ligand (log10) ((6R,S)-folinic acid [2]): 1.808 ± 0.0037 | FACS-Seq fitted mean (log10) ((6R,S)-folinic acid [3]): 0.348 ± 0.022 | normalized RNA/DNA level with ligand (log10) ((6R,S)-folinic acid [4]): 1.95 ± 0.053

GCUGUCACCGGUGCUUGGUACGUUAUAUUCAGCCGGUCUGAUGAGUCUAACACGAGACGAAACAGC
FACS-Seq fitted mean (log10) ((6R,S)-folinic acid [1]): 0.361 ± 0.13 | normalized RNA/DNA level without ligand (log10) ((6R,S)-folinic acid [2]): 1.938 ± 0.0019 | FACS-Seq fitted mean (log10) ((6R,S)-folinic acid [3]): 0.436 ± 0.18 | normalized RNA/DNA level with ligand (log10) ((6R,S)-folinic acid [4]): 2 ± 0.045

GCUGUCACCGGUGCUUGGUACGUUAUAUUCAGCCGGUCUGAUGAGUCUCACACUAGACGAAACAGC
FACS-Seq fitted mean (log10) ((6R,S)-folinic acid [1]): 0.136 ± 0.099 | normalized RNA/DNA level without ligand (log10) ((6R,S)-folinic acid [2]): 2.008 ± 0.011 | FACS-Seq fitted mean (log10) ((6R,S)-folinic acid [3]): 0.187 ± 0.057 | normalized RNA/DNA level with ligand (log10) ((6R,S)-folinic acid [4]): 2.03 ± 0.011

GCUGUCACCGGUGCUUGGUACGUUAUAUUCAGCCGGUCUGAUGAGUCUGACAGAAGACGAAACAGC
FACS-Seq fitted mean (log10) ((6R,S)-folinic acid [1]): 0.403 ± 0.0081 | normalized RNA/DNA level without ligand (log10) ((6R,S)-folinic acid [2]): 1.994 ± 0.017 | FACS-Seq fitted mean (log10) ((6R,S)-folinic acid [3]): 0.442 ± 0.15 | normalized RNA/DNA level with ligand (log10) ((6R,S)-folinic acid [4]): 2.01 ± 0.035

GCUGUCACCGGUGCUUGGUACGUUAUAUUCAGCCGGUCUGAUGAGUCUUACAGAAGACGAAACAGC
FACS-Seq fitted mean (log10) ((6R,S)-folinic acid [1]): 0.358 ± 0.072 | normalized RNA/DNA level without ligand (log10) ((6R,S)-folinic acid [2]): 1.913 ± 0.011 | FACS-Seq fitted mean (log10) ((6R,S)-folinic acid [3]): 0.548 ± 0.15 | normalized RNA/DNA level with ligand (log10) ((6R,S)-folinic acid [4]): 1.99 ± 0.037

GCUGUCACCGGUGCUUGGUACGUUAUAUUCAGCCGGUCUGAUGAGUCUAACAGAAGACGAAACAGC
FACS-Seq fitted mean (log10) ((6R,S)-folinic acid [1]): 0.344 ± 0.11 | normalized RNA/DNA level without ligand (log10) ((6R,S)-folinic acid [2]): 1.964 ± 0.01 | FACS-Seq fitted mean (log10) ((6R,S)-folinic acid [3]): 0.425 ± 0.04 | normalized RNA/DNA level with ligand (log10) ((6R,S)-folinic acid [4]): 2 ± 0.028

GCUGUCACCGGUGCUUGGUACGUUAUAUUCAGCCGGUCUGAUGAGUCUGACAGGAGACGAAACAGC
FACS-Seq fitted mean (log10) ((6R,S)-folinic acid [1]): 0.464 ± 0.089 | normalized RNA/DNA level without ligand (log10) ((6R,S)-folinic acid [2]): 1.959 ± 0.01 | FACS-Seq fitted mean (log10) ((6R,S)-folinic acid [3]): 0.498 ± 0.27 | normalized RNA/DNA level with ligand (log10) ((6R,S)-folinic acid [4]): 2.02 ± 0.042

GCUGUCACCGGUGCUUGGUACGUUAUAUUCAGCCGGUCUGAUGAGUCUUACAGGAGACGAAACAGC
FACS-Seq fitted mean (log10) ((6R,S)-folinic acid [1]): 0.254 ± 0.021 | normalized RNA/DNA level without ligand (log10) ((6R,S)-folinic acid [2]): 1.661 ± 0.0093 | FACS-Seq fitted mean (log10) ((6R,S)-folinic acid [3]): 0.489 ± 0.051 | normalized RNA/DNA level with ligand (log10) ((6R,S)-folinic acid [4]): 1.96 ± 0.033

GCUGUCACCGGUGCUUGGUACGUUAUAUUCAGCCGGUCUGAUGAGUCUAACAGGAGACGAAACAGC
FACS-Seq fitted mean (log10) ((6R,S)-folinic acid [1]): 0.475 ± 0.12 | normalized RNA/DNA level without ligand (log10) ((6R,S)-folinic acid [2]): 1.904 ± 0.01 | FACS-Seq fitted mean (log10) ((6R,S)-folinic acid [3]): 0.351 ± 0.0077 | normalized RNA/DNA level with ligand (log10) ((6R,S)-folinic acid [4]): 2 ± 0.031

GCUGUCACCGGUGCUUGGUACGUUAUAUUCAGCCGGUCUGAUGAGUCUUACAGUAGACGAAACAGC
FACS-Seq fitted mean (log10) ((6R,S)-folinic acid [1]): 0.183 ± 0.13 | normalized RNA/DNA level without ligand (log10) ((6R,S)-folinic acid [2]): 1.92 ± 0.021 | FACS-Seq fitted mean (log10) ((6R,S)-folinic acid [3]): 0.133 ± 0.26 | normalized RNA/DNA level with ligand (log10) ((6R,S)-folinic acid [4]): 1.994 ± 0.0074

GCUGUCACCGGUGCUUGGUACGUUAUAUUCAGCCGGUCUGAUGAGUCUAACAGUAGACGAAACAGC
FACS-Seq fitted mean (log10) ((6R,S)-folinic acid [1]): -0.296 ± 0.34 | normalized RNA/DNA level without ligand (log10) ((6R,S)-folinic acid [2]): 1.94 ± 0.018 | FACS-Seq fitted mean (log10) ((6R,S)-folinic acid [3]): 0.0957 ± 0.15 | normalized RNA/DNA level with ligand (log10) ((6R,S)-folinic acid [4]): 2.001 ± 0.0087

GCUGUCACCGGUGCUUGGUACGUUAUAUUCAGCCGGUCUGAUGAGUCUCACAUAAGACGAAACAGC
FACS-Seq fitted mean (log10) ((6R,S)-folinic acid [1]): 0.25 ± 0.021 | normalized RNA/DNA level without ligand (log10) ((6R,S)-folinic acid [2]): 1.978 ± 0.0043 | FACS-Seq fitted mean (log10) ((6R,S)-folinic acid [3]): 0.219 ± 0.3 | normalized RNA/DNA level with ligand (log10) ((6R,S)-folinic acid [4]): 2.02 ± 0.035
